Data taken from patent US11098085B2, “Use of a HIV derived accessory protein for the reactivation of latent HIV” (Janssen Sciences Ireland Unlimited Company, priority 2014, dated 2021).

B1: T86: Tat protein T86; full length tat protein is 86-101 aa (protein, UniProt P04608 1-86, looked up)
Protein Tat: MEPVDPRLEPWKHPGSQPKTACTNCYCKKCCFHCQVCFITKALGISYGRKKRRQRRRAHQNSQTHQASLSKQPTSQPRGDPTGPKE
B2: T72: full length exon 1 Tat [1-72 aa], contains all domains essential for trans-activation (protein, UniProt P04608 1-72, looked up, fragment)
chain: MEPVDPRLEPWKHPGSQPKTACTNCYCKKCCFHCQVCFITKALGISYGRKKRRQRRRAHQNSQTHQASLSKQ
B3: T66 (protein)
chain: MEPVDPRLEPWKHPGSQPKTACTNCYCKKCCFHCQVCFMTKALGISYGRKKRRQRRRAHQNSQTHQ
modifications: Human immunodeficiency virus 1

What was measured:
[1] = system: HIV LTR; assay: HIV LTR transactivation by Tat C-terminal deletion mutants (triple plasmid transfection, Dual-Glo luciferase); type: cell-based; settings: HEK293 cells, 24 h post transfection, full length Tat72 exon-1 set to 100%, mean (standard deviation)
Description: Activity is expressed in % with respect to the activity achieved by full length Tat72 exon-1 set to 100%. Shown data are mean values [n 4] with indicated (standard deviation).
Tat-mediated transactivation was determined by triple plasmid transfection of HEK293 cells with pEF-T, a Tat expression plasmid, LTR-FLuc, a HIV LTR-controlled firefly luciferase reporter plasmid and pEF1-RLuc, a EF1α promoter driven Renilla luciferase reporter plasmid. Luciferase reporter activities were assessed 24 h post transfection using the Dual-Glo luciferase assay [Promega]. The measured HIV LTR luciferase data were normalized by Renilla luciferase data retrieved from the pEF1-RLuc plasmid. LTR activity is expressed as percentage of wild type exon-1 Tat72 activity.

[2] = system: MT4-LTR-GFP cells; assay: Titration of tat protein variants on latent HIV LTR-GFP reporter cell line (flow cytometry); type: cell-based; set-up: unit not given here; settings: overnight
Description: MT4-LTR-GFP cells were incubated overnight with different Tat variants at the indicated concentration [μg/ml]. LTR activation was determined by flow cytometry.

[3] = system: latent HIV; assay: Ex vivo activation of latent HIV from primary CD4+ T cells of HIV-infected individuals (gag RNA QPCR); type: cell-based, HIV-1; settings: for % Activity (PHA): PHA set to 100%; for % Activity (PMA): PMA set to 100%
Description: Activation of latent HIV from primary CD4^+ T cells by overnight incubation with different Tat proteins. Indicated numbers represent HIV activation in percentage to reference compounds PMA and PHA set to 100%. The shown % increase compared to PMA/PHA is statistically significant (p<0.01).
CD4^+ T cells were isolated from 200 ml whole blood using CD4 microbeads (Miltenyi Biotec) according to manufacturer's protocol. Blood originates from HIV-infected individuals under long-term HAART with undetectable plasma virus. Ten to twenty replicates of cell pools plated at 1×10^6 CD4^+ T cells/well were incubated overnight with compounds or mock controls (DMSO/PBS). Total RNA was isolated from each replicate using the Magmax 96 Total RNA isolation kit (Ambion) following the manufacturer's protocol. Duplicate cDNA reactions were performed on each RNA replicate using SuperScript III First-Strand Synthesis kit (Invitrogen) according to the manufacturer's protocol. Quantitative real-time PCR (QPCR) was conducted on each cDNA applying gag-specific primers and the nucleic acid detection dye Sybr Green I [Invitrogen]. Standard curves were generated using cDNA synthesized from in vitro transcribed RNA. The detection limit of the QPCR assay was determined to be within 1-10 copies/reaction. Cycle threshold (ct) values 40 were excluded from the analysis. The Wilcoxon rank sum test was used to calculate the statistical significance of the relative HIV-1 gag RNA copy number between different conditions.

[4] = system: HIV LTR; assay: HIV LTR activation by T66 fusion proteins (triple plasmid transfection of HEK293 cells, Dual-Glo luciferase); type: cell-based
Description: Triple plasmid transfection of HEK293 cells with pEF-T (Tat expression plasmid), LTR-FLuc (HIV LTR-controlled firefly luciferase reporter plasmid) and pEF1-RLuc (EF1α promoter driven Renilla luciferase reporter plasmid). Luciferase reporter activities were assessed 24 h post transfection using the Dual-Glo luciferase assay [Promega]. The measured HIV LTR luciferase data were normalized by Renilla luciferase data collected from the co-transfected pEF1-RLuc signal. LTR activation is either expressed as fold increase over cell control or as percentage of T66 activity.

Row | Molecule | % Tat72 activity [1] | LTR activation ([2]; Tat 30 μg/ml) | LTR activation ([2]; Tat 40 μg/ml) | LTR activation ([2]; Tat 50 μg/ml) | LTR activation ([2]; Tat 60 μg/ml) | LTR activation ([2]; Tat 70 μg/ml) | LTR activation ([2]; Tat 80 μg/ml) | LTR activation ([2]; Tat 100 μg/ml) | % Activity (PHA) ([3]; Donor 1, overnight incubation) [%] | % Activity (PMA) ([3]; Donor 1, overnight incubation) [%] | % Activity (PHA) ([3]; Donor 3, overnight incubation) [%] | % Activity (PMA) ([3]; Donor 3, overnight incubation) [%] | % Activity (PHA) ([3]; Donor 5, overnight incubation) | % Activity (PHA) ([3]; Donor 4, overnight incubation) | other results
1 | T60: first 60 N-terminal amino acids of wild-type tat, SEQ ID No 2 (MEPVDPRLEPWKHPGSQPKTACTNCYCKKCCFHCQVCFMTKALGISYGRKKRRQRRRAHQ; Human immunodeficiency virus 1) [Tat T60] | 77.2 (±10.8) % | 28.5 | 33.4 | 87.0 | 92.1 | 95.2 | 95.8 | 93.3 | 328 | 405 | 196 | 213 | ND/254% |  | 
2 | 1-57: first 57 N-terminal amino acids of wild-type tat, SEQ ID No 1; minimal reactivation domain (MEPVDPRLEPWKHPGSQPKTACTNCYCKKCCFHCQVCFMTKALGISYGRKKRRQRRR; Human immunodeficiency virus 1) [Tat 1-57] | 40.2 (±2.3) % |  |  |  |  |  |  |  |  |  |  |  |  |  | 
3 | B1 |  |  |  |  |  |  |  |  |  |  |  |  | ND/408% | ND/436% | 
4 | B2 |  | 18.6 | 47.2 | 60.4 | 76.3 | 88.8 | 93.8 | 93.7 |  |  |  |  |  |  | 
5 | B3 | 92.2 (±12.7) % | 45.7 | 53.8 | 87.0 | 88.7 | 87.6 | 93.9 | 94.5 | 680 | 838 | 487 | 530 | ND/636% | ND/479% | % Activity (PHA) ([3]; Donor 2, overnight incubation): 986%; HIV activation ex vivo compared with reference compounds ([3]; patient-derived latently infected CD4 cells, versus PHA, PMA and SAHA): exceeded by far the reactivation achieved by reference compounds; RLUC ([4]; EF1α promoter driven Renilla luciferase (normalisation signal), HEK293, 24 h post transfection): 267; FLUC ([4]; HIV LTR-controlled firefly luciferase, HEK293, 24 h post transfection): 15437; FLUCnorm ([4]; firefly luciferase normalized by Renilla luciferase): 37049; Fold ([4]; fold increase over cell control): 26; % T66 ([4]; percentage of T66 activity): 100%
